Laboratory results from publication PMC8355051 (Nature biotechnology, 2021).

Assays:
[1] = biological target: Spike-RBD-25aa-SmBiT-12xHisTag (SARS-CoV-2, UniProt P0DTC2); test: split reporter
[2] = biological target: Spike-RBD-15aa-LgBiT-12xHisTag (SARS-CoV-2, UniProt P0DTC2); test: split reporter
[3] = biological target: Biotinylated Spike RBD protein (SARS-CoV-2, UniProt P0DTC2, biotin); test: BLI

Measured: binding result

B1: C105 IgG (antibody, V domains shown)
VH: QVQLVESGGGLIQPGGSLRLSCAASGFTVSSNYMSWVRQAPGKGLEWVSVIYSGGSTYYADSVKGRFTISRDNSKNTLYLQMNSLRAEDTAVYYCARGEGWELPYDYWGQGTLVTVSS
VL: QSALTQPPSASGSPGQSVTISCTGTSSDVGGYKYVSWYQQHPGKAPKLMIYEVSKRPSGVPDRFSGSKSGNTASLTVSGLQAEDEADYYCSSYEGSNNFVVFGGGTKLTVL
binds: all assays above
